Data reported in patent US12460006B2, “Antibodies against integrin alpha 11 beta 1” (Momenta Pharmaceuticals, Inc., priority 2019, dated 2025).
“Also recorded” adds a separate entry of the source. Values belong to the molecule of their own block, whether it stands above or below them.

Experiments:
I domain of α11β1 = target: T1, I domain of α11β1 (Homo sapiens, UniProt Q9UKX5); assay: ELISA binding to in-house generated I domain of α11β1; conditions: for I Domain binding: Yes/No
T1 construct: An in-house generated I domain of α11β1 was used; made in house
T1 sequence (Q9UKX5 164-345 limits assumed): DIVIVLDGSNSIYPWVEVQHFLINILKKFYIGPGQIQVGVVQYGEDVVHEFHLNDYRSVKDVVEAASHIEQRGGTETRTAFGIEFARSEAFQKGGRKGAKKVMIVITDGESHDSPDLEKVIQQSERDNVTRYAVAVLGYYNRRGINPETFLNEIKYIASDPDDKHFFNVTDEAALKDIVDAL
Procedure: 0.25 μg/mL of target antigen (recombinant human or mouse α11β1) was plated in a 96-well plate over night at 4° C. Plates were washed (PBS with 0.1% Tween-20), blocked (PBS with 2% BSA and 0.05% Tween-20) for 1 hour at room temperature and incubated with a range of antibody concentrations for 1 hour at room temperature. Subsequently, plates were washed and incubated with biotinylated anti-rabbit/mouse/human IgG in a 1:1000 dilution buffer and incubated for 1 hour at room temperature. After washing the plates, Streptavidin HRP was added at 1:200 in dilution buffer and incubated for 1 hour at room temperature. Ultra TMB ELISA substrate solution was added and the plates incubated for 5 minutes on a plate shaker. The reaction was stopped by adding stop solution to each well and plates were read at 450 nm.
22 Data was also collected to determine whether antibodies of interest bind to the I domain of α11β1. An in-house generated I domain of α11β1 was used. […] Mouse antibodies 10-F23, 10-L15, 7-O8, 6-A12, 9-G05 and 9-E16 and rabbit antibodies 7-H12 and 2-D3 were also tested for binding against the in-house generated α11031 domain. FIGS. 3A and 3B show graphs illustrating binding data from exemplary mAbs.

[1] = target: T2, α11β1 expressed on the surface of CHO-K1 cells (Homo sapiens, UniProt Q9UKX5); assay: FACS antibody binding to CHO-K1 cells expressing human α11; conditions: for CHO-K1 FACS: binding Yes/No; for CHO-K1 binding EC50 (in words): FACS
T2 construct: expressed in transfected cells; host or cells: CHO-K1
T2 sequence (Q9UKX5 23-1188): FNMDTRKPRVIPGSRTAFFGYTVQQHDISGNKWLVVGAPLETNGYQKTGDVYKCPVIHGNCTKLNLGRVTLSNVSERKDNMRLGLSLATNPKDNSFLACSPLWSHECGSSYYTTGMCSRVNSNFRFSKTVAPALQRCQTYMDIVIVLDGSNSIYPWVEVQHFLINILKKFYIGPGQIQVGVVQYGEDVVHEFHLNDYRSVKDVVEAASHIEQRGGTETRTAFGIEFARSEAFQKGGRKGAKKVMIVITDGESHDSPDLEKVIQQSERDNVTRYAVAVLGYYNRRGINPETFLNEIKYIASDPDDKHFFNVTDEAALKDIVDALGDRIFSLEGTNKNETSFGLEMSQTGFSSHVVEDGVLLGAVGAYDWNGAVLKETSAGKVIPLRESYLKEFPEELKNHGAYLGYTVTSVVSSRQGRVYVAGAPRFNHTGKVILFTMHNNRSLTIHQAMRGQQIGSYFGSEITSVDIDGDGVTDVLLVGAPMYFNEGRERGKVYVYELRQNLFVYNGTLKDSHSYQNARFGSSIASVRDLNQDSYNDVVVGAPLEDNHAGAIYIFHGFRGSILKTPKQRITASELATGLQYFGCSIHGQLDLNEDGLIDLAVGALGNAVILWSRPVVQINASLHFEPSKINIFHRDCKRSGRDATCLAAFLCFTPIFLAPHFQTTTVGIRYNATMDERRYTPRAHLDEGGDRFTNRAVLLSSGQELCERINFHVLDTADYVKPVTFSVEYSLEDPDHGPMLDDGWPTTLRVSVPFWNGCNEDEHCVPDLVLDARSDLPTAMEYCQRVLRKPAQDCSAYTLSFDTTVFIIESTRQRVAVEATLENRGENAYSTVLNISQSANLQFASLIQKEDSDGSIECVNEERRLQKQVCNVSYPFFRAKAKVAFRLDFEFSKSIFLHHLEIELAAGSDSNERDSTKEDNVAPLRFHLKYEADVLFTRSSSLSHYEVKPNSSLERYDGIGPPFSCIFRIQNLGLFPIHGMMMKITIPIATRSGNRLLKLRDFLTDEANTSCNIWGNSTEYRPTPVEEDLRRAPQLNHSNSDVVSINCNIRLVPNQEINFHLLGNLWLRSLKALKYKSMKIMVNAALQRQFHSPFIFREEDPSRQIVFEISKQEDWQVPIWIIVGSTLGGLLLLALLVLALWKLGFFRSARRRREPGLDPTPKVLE
Procedure: 200,000 cells (wild-type CHO-K1 cells or CHO-K1 cells expressing human α11) were incubated with each antibody at desired concentrations in FACS buffer for 30 min at 4° C. Then, the cells were washed with FACS buffer and incubated with secondary antibody at 1:100 dilution for 30 minutes at 4° C. Cells were then washed and fixed with 1% PFA in PBS for 20 minutes at room temperature; washed again and read on a cytometer in FACS buffer.
Since integrins are large, transmembrane receptors that exist in different conformational shapes, experiments were performed to confirm that the novel antibodies also bound cell-expressed α11β1. A CHO-K1 cell line that endogenously expressed high levels of the β1 subunit was engineered to stably express human α11 (CHO-K1 hu α11).
Binding EC50 was estimated using data from Fluorescence-activated cell sorting (FACS) performed with CHO-K1 hu α11β1 cells.

[2] = test system: human pulmonary fibroblasts (HPFs); assay: FACS antibody binding to human pulmonary fibroblasts; conditions: for HPF FACS: binding Yes/No
Procedure: (§1) Human Pulmonary Fibroblasts (ScienCell) were cultured in complete Fibroblast Growth Medium (ScienCell) until 80% confluent in T-150 flasks. Cells were washed and harvested using Accutase. Cells were seeded into T-150 flasks at 7,500 cells/cm^2 in complete FGF and cultured for 72 hours. Cells were then washed and starved in serum reduced medium for 24 hours. After starvation, cells were treated with TGFβ-1 (R&D Systems) for 72 hours. Cells were harvested using Accutase and seeded in 96-well conical bottom plates. Cells were blocked with Heat Inactived Fetal Bovine Serum (Gibco) for 30 minutes at 4° C. Cells were then incubated with anti-α11 antibodies at the doses described in each figure for 30 minutes at 4° C. A human anti-α11 antibody (Creative BioLabs) was included as a positive control as well as the appropriate IgG isotype negative controls. Cells were washed twice and incubated with PE conjugated secondary antibodies specific to the IgG class of the anti-α11 antibodies being tested for 30 minutes at 4° C. Cells were washed twice and fixed in 1% PFA for 30 minutes. Cells were acquired on a FACS Verse […]. Data were analyzed by gating on single cells and determining the geometric Mean Fluorescence Intensity (gMFI) in the PE channel for each sample.
(§2) Binding to a physiologically relevant primary human cell type was also tested. Human pulmonary fibroblasts (HPF) and TGFβ treatment were used to induce a fibroblast-to-myofibroblast transition (FMT), giving rise to myofibroblasts (MF). […] Additionally, HPFs express α11 and α2β1, other collagen binding receptors, which means that HPFs can be to test cross-reactivity of antibodies of interest.

myofibroblasts (MF) = assay: FACS antibody binding to myofibroblasts; set-up: species or system human; conditions: binding Yes/No
Procedure: as §1, §2

B2: 9-G05: mouse anti-α11β1 mAb; VH SEQ ID NO: 103, VL SEQ ID NO: 104 (antibody, V domains shown)
VH: EVQLQQSGPELVKPGASVKIPCKASGYTFPDYNMDWVKQSHGKSLEWIGYINPDNGGTIYNQKFKGKATLTVDKSSSTAYMELRSLTSEDTAVYYCARLDSSGYGYYAMDYWGQGTSVTVSS
VL: DIVLTQSPASLAVSLGQRATISCRASESVDNYGISFMHWYQQKPGQPPKLLIYRASNLDSEIPARFSGSGSRTDFTLTIDPVETDDVATYYCQQSYKDPRTFGGGTKLEIK
I-domain binder (I domain of α11β1): I domain binders; also recorded: I-domain binders; also recorded: bound the I domain
I Domain binding (I domain of α11β1): Yes
CHO-K1 binding EC50 (in words) [1]: not as potent
CHO-K1 FACS [1]: Yes
HPF FACS [2]: No
MF FACS (myofibroblasts (MF)): Yes

B3: 9-E16: mouse anti-α11β1 mAb; VH SEQ ID NO: 111, VL SEQ ID NO: 112 (antibody, V domains shown)
VH: EVQLQQSGPELVKPGASVKISCKASGYTFTDYYMHWVKQKPGQGLEWIGEIYPGSGNPYYNEKFKGKATLTADKSSSSAYMQLSSLTSEDSAVYFCARTSYGRVGTGFAYWGQGTLVTVSA
VL: NFVMTQTPLSLPVSLGDQASISCRSSQSLLHSNGNTYLHWYLQKPGQSPKLLIYKVSNRFSGVPDRFSGSGSGTDFTLKINRVETEDLGIYFCSQSSHVPTFGAGTKLELK
I-domain binder (I domain of α11β1): I domain binders; also recorded: I-domain binders; also recorded: bound the I domain
I Domain binding (I domain of α11β1): Yes
CHO-K1 binding EC50 (in words) [1]: not as potent
CHO-K1 FACS [1]: Yes
binding to HPFs ([2]; FACS): some HPF binding
HPF FACS [2]: Low
MF FACS (myofibroblasts (MF)): Yes

B5: 8-I14: mouse anti-α11β1 mAb; VH SEQ ID NO: 109, VL SEQ ID NO: 110 (antibody, V domains shown)
VH: EVQLQQSGPELVKPGASVKKSCKASGYTFTDYYMHWVKQKPGQGLEWIGKIYPGSGNTHYNEKFKGKATLTADKSSSTAYMQLSSLTSEDSAVYFCATNYYGYRAMNYWGQGSSVTVSS
VL: DIHLTQSPSSLSASLGERISLTCRASQDIYISLNWFQQKPDGTIKLLIYGTSSLDSGVPKRFSGSRSGSDYSLTISSLESEDFADYYCLQYASSPYTFGGGTKLEIK
I Domain binding (I domain of α11β1): No
CHO-K1 binding EC50 (in words) [1]: low nanomolar range
CHO-K1 FACS [1]: Yes
HPF FACS [2]: No
MF FACS (myofibroblasts (MF)): Yes

The next lines start with results.

I Domain binding (I domain of α11β1): No
CHO-K1 FACS [1]: Yes
HPF FACS [2]: No
MF FACS (myofibroblasts (MF)): Yes
B1: 24E4G6: rat anti-α11β1 mAb; VH SEQ ID NO: 147, VL SEQ ID NO: 148 (antibody, V domains shown)
VH: MELELSLIFIFSLLKDVQCEVQLVESGGSLVQPGGSLKLSCVASGYTFSNYWMDWVRQSPGKSLEWIGEINTDGRRTNYAPSIKDRFTISRDNAKSTLYLQMSNVKSDDTAIYYCTILRVYPHYFDYWGQGVMVTVSS
VL: MMSPAQFLFLLMLWIQEARGDVVMTQTPPSLSVAIGQSVSISCKSSQSLVYSDGETYLHWFLQSPGRSPKRLIYHVSNLGSGVPDRFSGTGSLTDFTLRISRVEAEDLGVYYCAQTTHFPPTFGAGTKLELK
I-domain binder (I domain of α11β1): did not bind to the I-domain; also recorded: neither of the antibodies was found to be an I-domain binder

I Domain binding (I domain of α11β1): No
CHO-K1 FACS [1]: Yes
HPF FACS [2]: No
MF FACS (myofibroblasts (MF)): Yes
B4: 16E10: rabbit anti-α11β1 mAb; heavy chain SEQ ID NO: 161, light chain SEQ ID NO: 162 (antibody)
heavy: METGLRWLLLVAVLKGVQCQSLEESGGDLVKPGASLTLTCRVSGFSFSSSYYMCWVRQAPGKGLEWIACIGTTRGSTYYATWAKGRFTISKISSTTVTLQMTSLTDADTATYFCARDATGYRINTIGLYFNLWGPGTLVTVSSGQPKAPSVFPLAPCCGDTPSSTVTLGCLVKGYLPEPVTVTWNSGTLTNGVRTFPSVRQSSGLYSLSSVVSVTSSSQPVTCNVAHPATNTKVDKTVAPSTCSKPMCPPPELPGGPSVFIFPPKPKDTLMISRTPEVTCVVVDVSQDDPEVQFTWYINNEQVRTARPPLREQQFNSTIRVVSTLPIAHQDWLRGKEFKCKVHNKALPAPIEKTISKARGQPLEPKVYTMGPPREELSSRSVSLTCMINGFYPSDISVEWEKNGKAEDNYKTTPTVLDSDGSYFLYSKLSVPTSEWQRGDVFTCSVMHEALHNHYTQKSISRSPGK
light: MDTRAPTQLLGLLLLWLPGARCAFELTQTPSSVEAAVGGTPTIKCQASQTIYSYLSWYQQKPGQPPKLLIYEASKLASGVPSRFSGSGSGTDYTLTISDLECADAATYYCQSYHGTASTEYNTFGGGTEVVVRGDPVAPTVLIFPPAADQVATGTVTIVCVANKYFPDVTVTWEVDGTTQTTGIENSKTPQNSADCTYNLSSTLTLTSTQYNSHKEYTCKVTQGTTSVVQSFNRGDC
